B1: OmCI (natural protein)
chain: DSESDCTGSEPVDAFQAFSEGKEAYVLVRSTDPKARDCLKGEPAGEKQDNTLPVMMTFKNGTDWASTDWTFTLDGAKVTATLGNLTQNREVVYDSQSHHCHVDKVEKEVPDYEMWMLDAGGLEVEVECCRQKLEELASGRNQMYPHLKDC
notes: also called Coversin

Legend:
[1] = target: complement C5 (human (endogenous in serum)) (UniProt P01031); assay: SPR
complement C5 = complement C5 (human (endogenous in serum), UniProt P01031 19-673; P01031 678-1676); assay: SEC-MALS; 100 uL at 1 mg/mL on S200 10/300 in PBS; C5-OmCI with RaCI and EcuFab, with or without CirpT1 (2-fold molar excess, excess removed by SEC); settings: both partners purified
Sequence of complement C5 (P01031 19-673, chain 1 of 2): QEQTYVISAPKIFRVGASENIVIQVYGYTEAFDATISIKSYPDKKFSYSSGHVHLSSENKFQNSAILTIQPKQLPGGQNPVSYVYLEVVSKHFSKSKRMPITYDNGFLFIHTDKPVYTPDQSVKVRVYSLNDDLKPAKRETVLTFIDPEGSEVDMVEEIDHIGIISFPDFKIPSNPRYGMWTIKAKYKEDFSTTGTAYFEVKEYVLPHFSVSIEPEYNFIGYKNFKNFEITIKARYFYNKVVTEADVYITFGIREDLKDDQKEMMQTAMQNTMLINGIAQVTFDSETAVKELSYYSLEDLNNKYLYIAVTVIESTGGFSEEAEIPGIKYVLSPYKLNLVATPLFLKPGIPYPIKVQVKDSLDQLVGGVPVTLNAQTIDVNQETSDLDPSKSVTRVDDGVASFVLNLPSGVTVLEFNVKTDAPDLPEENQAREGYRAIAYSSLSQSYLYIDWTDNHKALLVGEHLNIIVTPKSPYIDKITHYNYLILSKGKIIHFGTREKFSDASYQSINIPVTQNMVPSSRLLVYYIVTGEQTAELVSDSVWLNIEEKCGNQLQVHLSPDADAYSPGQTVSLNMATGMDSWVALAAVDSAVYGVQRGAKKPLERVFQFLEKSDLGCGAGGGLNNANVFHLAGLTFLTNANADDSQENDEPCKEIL
Sequence of complement C5 (P01031 678-1676, chain 2 of 2): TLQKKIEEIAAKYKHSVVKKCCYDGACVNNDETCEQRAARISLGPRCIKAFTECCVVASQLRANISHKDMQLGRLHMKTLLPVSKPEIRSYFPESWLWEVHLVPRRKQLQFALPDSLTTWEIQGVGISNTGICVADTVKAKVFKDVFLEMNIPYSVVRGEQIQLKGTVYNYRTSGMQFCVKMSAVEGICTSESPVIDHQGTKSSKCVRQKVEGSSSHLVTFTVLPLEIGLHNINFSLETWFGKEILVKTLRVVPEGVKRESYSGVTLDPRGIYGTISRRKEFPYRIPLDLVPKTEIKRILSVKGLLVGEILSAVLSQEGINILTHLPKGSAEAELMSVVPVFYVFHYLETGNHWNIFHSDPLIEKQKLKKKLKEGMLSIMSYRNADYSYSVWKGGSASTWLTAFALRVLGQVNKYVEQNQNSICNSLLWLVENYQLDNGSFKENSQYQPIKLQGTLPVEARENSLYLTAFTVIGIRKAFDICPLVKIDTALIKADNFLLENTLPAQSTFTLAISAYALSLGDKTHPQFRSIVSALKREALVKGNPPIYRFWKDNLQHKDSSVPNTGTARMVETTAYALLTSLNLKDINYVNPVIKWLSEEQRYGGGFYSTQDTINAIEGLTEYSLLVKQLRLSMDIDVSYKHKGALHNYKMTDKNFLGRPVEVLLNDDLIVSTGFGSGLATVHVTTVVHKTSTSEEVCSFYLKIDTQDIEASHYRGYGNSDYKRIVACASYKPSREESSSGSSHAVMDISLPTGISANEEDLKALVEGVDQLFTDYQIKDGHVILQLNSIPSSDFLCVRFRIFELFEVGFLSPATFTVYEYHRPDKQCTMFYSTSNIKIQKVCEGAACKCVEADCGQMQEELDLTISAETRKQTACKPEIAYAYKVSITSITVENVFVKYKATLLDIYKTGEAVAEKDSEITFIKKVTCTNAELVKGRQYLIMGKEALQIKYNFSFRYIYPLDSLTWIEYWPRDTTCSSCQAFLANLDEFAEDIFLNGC

Sequence of complement C5 (human (endogenous in serum)) (P01031 19-673, chain 1 of 2): as the sequence (P01031 19-673, chain 1 of 2) above
Sequence of complement C5 (human (endogenous in serum)) (P01031 678-1676, chain 2 of 2): as the sequence (P01031 678-1676, chain 2 of 2) above

Molecule | Kd [1] | binding result (complement C5)
CirpT1 (complement inhibitor from Rhipicephalus pulchellus of the terminal pathway, family member 1) (natural protein) | 10 nM | –
B1 | – | binds

Source: paper PMC6955305, “An inhibitor of complement C5 provides structural insights into activation” (Proceedings of the National Academy of Sciences of the …, 2019)
